Test results from patent US20190382462A1, “METHODS AND COMPOSITIONS FOR TREATING HPA HYPERACTIVITY” (priority 2017, published 2019).
Positions count from the first letter of the chain named. In names and notes the source's numbering stands. Like-named read-outs stand apart in the source and are kept apart here.

Columns and labels:
CRF [1] = molecular target: T1, CRF (Homo sapiens, UniProt P06850); assay: CRF binding ELISA (biotinylated CRF on avidin-coated plate); conditions: data not shown
T1 construct: Biotinylated CRF was immobilized on an avidin-coated ELISA plate
T1 sequence (P06850 154-194 limits assumed): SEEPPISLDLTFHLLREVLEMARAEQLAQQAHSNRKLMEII
Description: Biotinylated CRF was immobilized on an avidin-coated ELISA plate. […] OD=optical density.

C57BL/6J mice = assay: Shock-induced freezing test (mild footshock stress model); type: in vivo, mouse
Experimental: (§1) FIG. 2A and FIG. 2B: Serum concentration of CRF-BP-Fc. FIG. 2A: A CRF-BP-Fc fusion protein (SEQ ID NO:16), composed of CRF-BP (25-322) fused to mouse IgG1 Fc was administered to C57B16 mice at 2 doses (15 μg/mouse and 45 μg/mouse). […] FIG. 2B: Freezing in response to mild footshock, a mouse model of stress, was reduced in mice treated with the CRF-BP-Fc fusion protein on the day of treatment (*<0.05 from vehicle-treated mice).
SIF is a defensive behavior observed in response to fearful stimuli exposure (163), and it is used to determine the efficacy of the constructs under study (FIG. 1B). Testing takes place in a Mouse NIR Video Fear Conditioning System (Med Associates, St. Albans, Vt.) housed in soundproof boxes. The session consists of a 2-min habituation period followed by three 1.5 mA footshocks lasting 1 sec and separated by 20 sec. Duration of freezing behavior is measured for 15 min. Freezing behavior, i.e., the absence of all voluntary movements except breathing, is measured in all sessions by real-time digital video recordings calibrated to distinguish between subtle movements such as whisker twitch or tail flick and freezing behavior. This test is performed at days 1 and 4 after administration. Before and after footshock, mice are bled as outlined above for determination of serum corticosterone and compound levels. […]

corticosterone (CORT) = assay: Serum corticosterone (CORT) under repeated footshock stress; type: in vivo; conditions: single administration 45 μg/mouse, C57Bl6 mice
Experimental: FIG. 3: Administration of a CRF-BP-Fc fusion (SEQ ID NO: 16) delayed the increased in basal serum glucocorticoid levels (“CORT” in pg/mL×1000), resulting from repeated stress. Repeated delivery of footshock to mice (dotted vertical lines indicate times for delivery of footshock) results in elevated baseline serum corticosterone (CORT) level in C57B16 mice (black circles), indicative of a chronic stress state. A single administration of CRF-BP-Fc fusion protein at a dose of 45 μg/mouse delayed such increase of baseline serum CORT (black squares). O=vehicle-treated mice; 45=CRF-BP-Fc-treated mice at 45 μg/mouse; *=p<0.05 from […]; CORT: plasma corticosterone levels (ng/ml).
CRFBP-Fc fusion protein was administered to C57B16 mice at a dose of 300 μg/mouse. Data points represent CORT concentration before and after injection of CRFBP-Fc containing IgG2-derived Fc (drug) and at 3 time points preceding repeated footshocks (FS). […] 3 hr after injection compared to vehicle group (**p<0.01, Fisher's LSD).
Stimulated CORT concentrations after injection of CRFBP-Fc containing IgG2-derived Fc and at 3 time points after repeated footshocks (FS). […] 3 hr after injection, FS1, and FS2 compared to vehicle group, respectively (*p<0.05, ****p<0.0001, Fisher's LSD). […]

[2] = Single-dose serum pharmacokinetics of CRF-BP-Fc in mice (sandwich ELISA); type: in vivo, mouse; conditions: two doses (15 and 45 μg) in mice
Experimental: as §1
Mice are bled at 1, 6, and 12 hours and at 1, 2, 4, 6, 8, and 12 days post-injection by retro-orbital bleeding. […] The present blood sampling times presuppose a half-life value closer to those reported for human IgG in the mouse.
Concentrations in sera over time of CRF-BP-Fc or CRF-BP-albumin constructs are measured with a sandwich ELISA, which has already been established with a lower limit of detection of 1 ng/ml in serum. This ELISA assay consists of immobilized biotinylated CRF to capture serum CRF-BP-Fc on avidin plates followed by detection with a commercial anti-Fc antibody. This assay is used to monitor the serum concentration of CRF-BP-Fc in preliminary studies. CRF-BP-albumin constructs are detected with the same design using antibodies to albumin and blocking reagents designed for albumin ELISA quantification (e.g., Serum Albumin Sandwich ELISA Kit from LifeSpan BioSciences). […]

CRF [3] = molecular target: T1, CRF; conditions: cited from earlier work
Ucn1 = molecular target: T2, Ucn1 (Homo sapiens, UniProt P55089); conditions: cited from earlier work
T2 construct: the related peptide urocortin 1 (Ucn1)
T2 sequence (P55089 83-122 limits assumed): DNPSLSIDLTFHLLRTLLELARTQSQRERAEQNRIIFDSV

[4] = humans; cited from earlier work
rUcn 1 = molecular target: T3, rUcn 1 (Rattus norvegicus, UniProt P55090); conditions: cited from earlier work; for loss of affinity for rUcn 1: alanine mutants of CRF-BP
T3 sequence (P55090 81-120 limits assumed): T2 sequence (P55089 83-122 limits assumed) with N2D, S4P

r/hCRF = molecular target: T4, r/hCRF (Homo sapiens, UniProt P06850); conditions: cited from earlier work; for loss of affinity for r/hCRF: alanine mutants of CRF-BP
T4 sequence (P06850 154-194 limits assumed): T1 sequence (P06850 154-194 limits assumed)

B1: CRF-BP-Fc (SEQ ID NO:16): fusion protein composed of CRF-BP (25-322) fused to mouse IgG1 Fc (protein, listed as Mus musculus)
chain: MSPNFKLQCHFILIFLTALRGESRYLELREAADYDPFLLFSANLKRELAGEQPYRRALRCLDMLSLQGQFTFTADRPQLHCAAFFISEPEEFITIHYDQVSIDCQGGDFLKVFDGWILKGEKFPSSQDHPLPSAERYIDFCESGLSRRSIRSSQNVAMIFFRVHEPGNGFTLTIKTDPNLFPCNVISQTPNGKFTLVVPHQHRNCSFSIIYPVVIKISDLTLGHVNGLQLKKSSAGCEGIGDFVELLGGTGLDPSKMTPLADLCYPFHGPAQMKVGCDNTVVRMVSSGKHVNRVTFEYRQLEPYELENPNGNSIGEFCLSGLTGGCKPCICTVPEVSSVFIFPPKPKDVLTITLTPKVTCVVVDISKDDPEVQFSWFVDDVEVHTAQTQPREEQFNSTFRSVSELPIMHQDWLNGKEFKCRVNSAAFPAPIEKTISKTKGRPKAPQVYTIPPPKEQMAKDKVSLTCMITDFFPEDITVEWQWNGQPAENYKNTQPIMDTDGSYFVYSKLNVQKSNWEAGNTFTCSVLHEGLHNHHTEKSLSHSPGK
- effect of fusion to mouse IgG1 Fc on CRF binding (CRF [1]): did not alter CRF binding
- circulating serum concentrations effective in reducing behavioral responses to stress (C57BL/6J mice; mice): 1 to 3 µg/mL
- freezing in response to mild footshock (C57BL/6J mice; single administration, day of treatment, vs vehicle-treated mice): reduced
- increase in basal serum glucocorticoid (CORT) levels resulting from repeated stress (corticosterone (CORT)): delayed
- pharmacokinetic profile from serum concentrations [2]: linear pharmacokinetics with a biexponential profile

B2: CRF-BP: binding protein that specifically binds to CRF (protein, UniProt P24387 25-322, looked up)
Corticotropin-releasing …: YLELREAADYDPFLLFSANLKRELAGEQPYRRALRCLDMLSLQGQFTFTADRPQLHCAAFFISEPEEFITIHYDQVSIDCQGGDFLKVFDGWILKGEKFPSSQDHPLPSAERYIDFCESGLSRRSIRSSQNVAMIFFRVHEPGNGFTLTIKTDPNLFPCNVISQTPNGKFTLVVPHQHRNCSFSIIYPVVIKISDLTLGHVNGLQLKKSSAGCEGIGDFVELLGGTGLDPSKMTPLADLCYPFHGPAQMKVGCDNTVVRMVSSGKHVNRVTFEYRQLEPYELENPNGNSIGEFCLSGL
- Kd (CRF [3]; range printed without naming the ligand, read-out: KD (high affinity of CRF-BP)): 0.1 to 0.2 nM
- Kd (CRF [3]; read-out: KD for CRF): 0.2 nM
- Kd (Ucn1): 0.1 nM
- plasma half-life [4]: minutes

B3: L61A: CRF-BP alanine mutant (protein, UniProt P24387 25-322, looked up, variant L61A)
Corticotropin-releasing …: B2 Corticotropin-releasing … with L37A
- loss of affinity for rUcn 1 (rUcn 1): partial
- loss of affinity for r/hCRF (r/hCRF): partial

B4: E121A: CRF-BP alanine mutant (protein, UniProt P24387 25-322, looked up, variant E121A)
Corticotropin-releasing …: B2 Corticotropin-releasing … with E97A
- loss of affinity for rUcn 1 (rUcn 1): partial
- loss of affinity for r/hCRF (r/hCRF): partial

B5: Q188A: CRF-BP alanine mutant (protein, UniProt P24387 25-322, looked up, variant Q188A)
Corticotropin-releasing …: B2 Corticotropin-releasing … with Q164A
- loss of affinity for rUcn 1 (rUcn 1): partial
- loss of affinity for r/hCRF (r/hCRF): partial

B6: CRF-BPC277A/C318A: CRF-BP derivative lacking the cysteines of the fifth disulfide bridge (C277/C318) (protein, UniProt P24387 25-322, looked up, variant C277A C318A)
Corticotropin-releasing …: B2 Corticotropin-releasing … with C253A, C294A
- affinity for rUcn 1 compared with WT CRF-BP (rUcn 1): indistinguishable from that of WT CRF-BP
- affinity for r/hCRF compared with WT CRF-BP (r/hCRF): indistinguishable from that of WT CRF-BP

B7: W116A: CRF-BP alanine mutant (protein, UniProt P24387 25-322, looked up, variant W116A)
Corticotropin-releasing …: B2 Corticotropin-releasing … with W92A
- loss of affinity for rUcn 1 (rUcn 1): complete
- loss of affinity for r/hCRF (r/hCRF): complete

B8: CRFBPC237A/C264A: CRF-BP derivative lacking the cysteines of the fourth disulfide bridge (C237/C264) (protein, UniProt P24387 25-322, looked up, variant C237A C264A)
Corticotropin-releasing …: B2 Corticotropin-releasing … with C213A, C240A
- affinity for rUcn 1 compared with WT CRF-BP (rUcn 1): indistinguishable from that of WT CRF-BP
- affinity for r/hCRF compared with WT CRF-BP (r/hCRF): indistinguishable from that of WT CRF-BP

B9: F123A: CRF-BP alanine mutant (protein, UniProt P24387 25-322, looked up, variant F123A)
Corticotropin-releasing …: B2 Corticotropin-releasing … with F99A
- loss of affinity for rUcn 1 (rUcn 1): partial
- loss of affinity for r/hCRF (r/hCRF): partial

B10: Y211A: CRF-BP alanine mutant (protein, UniProt P24387 25-322, looked up, variant Y211A)
Corticotropin-releasing …: B2 Corticotropin-releasing … with Y187A
- loss of affinity for rUcn 1 (rUcn 1): complete
- loss of affinity for r/hCRF (r/hCRF): complete
